Source: paper PMC2198831 (The Journal of Cell Biology, 2001)
Numbering of substitutions follows the chain as printed. One block for each binder: values may come before it.

How the values were obtained:
yeast actin monomers = yeast actin monomers (S. cerevisiae, UniProt P60010 1-375); assay: native gel or EMSA
[1] = molecular target: T1, yeast capping protein Cap1/2p, purified (S. cerevisiae, UniProt P28495;P13517); assay: native gel or EMSA
T1 sequence 1: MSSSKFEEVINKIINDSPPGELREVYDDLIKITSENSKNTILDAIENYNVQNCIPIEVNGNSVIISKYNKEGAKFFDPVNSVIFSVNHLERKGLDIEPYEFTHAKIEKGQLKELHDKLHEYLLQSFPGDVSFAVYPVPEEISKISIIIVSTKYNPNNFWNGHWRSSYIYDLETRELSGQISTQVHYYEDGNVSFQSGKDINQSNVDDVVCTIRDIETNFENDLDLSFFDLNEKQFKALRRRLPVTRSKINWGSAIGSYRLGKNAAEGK
T1 sequence 2: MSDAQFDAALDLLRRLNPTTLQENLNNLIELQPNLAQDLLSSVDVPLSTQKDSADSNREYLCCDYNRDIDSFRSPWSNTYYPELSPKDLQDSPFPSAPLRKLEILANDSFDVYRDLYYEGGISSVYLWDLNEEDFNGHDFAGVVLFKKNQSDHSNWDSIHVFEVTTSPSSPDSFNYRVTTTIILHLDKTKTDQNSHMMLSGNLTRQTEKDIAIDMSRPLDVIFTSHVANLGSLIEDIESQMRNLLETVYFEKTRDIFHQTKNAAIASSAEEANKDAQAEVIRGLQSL

binding result (yeast actin monomers): binds
binding result [1]: binds
B1: yeast twinfilin (Twf1p), wild type, purified recombinant (natural protein)
chain: MSTQSGIVAEQALLHSLNENLSADGIVIIIAKISPDSTSVHQTQVARSFEELVQLASQEREPLYIFYKPEGLDKYFFVSFIPDGSPVRSRMLYASTKNTLARQVGSNSLSTEQPLITDAQDLVDLKNFDSARPAGQNKPLTHDEEMQIEINKQQALLRKNTSVKLVSQDSASPLSLTFRVNSEKPINEILDSEGKNLIIFQIDPSNETIQIVQSDTCPSVDELYIDLPGPSYTIFRQGDSSFFIYSCPSGSKVKDRMIYASNKNGFINYLKNDQKIAFSKVVEIGDFVELDKSLLMATNKEDSLDHGSNPDLPNKSNLKFNKPKGPLRKRRT

binding result [1]: binds
B2: Twf1-3p mutant yeast twinfilin (alanines in both ADF-H domains) (natural protein)
chain: B1 chain with R88A, R90A, K254A, R256A
